Measured values reported in patent US8058507B2, “HOPM1 mediated disease resistance to Pseudomonas syringae in Arabidopsis” (priority 2007, dated 2011).

Assays:
AtMIN7 = assay: Immunoblot of endogenous AtMIN7 in Arabidopsis leaves infiltrated with ΔCEL mutant bacteria (pORF43); type: in vivo; details: HopM1 delivered by 1×10^8 CFU/ml ΔCEL mutant bacteria (pORF43)
Procedure: (§1) In brief: leaf disc fractions were homogenized in 1×SDS-polyacrylamide gel electrophoresis (PAGE) sample buffer, boiled for 5 min, and centrifuged for 2 minutes. Proteins in the supernatant were separated on SDS-PAGE gels and transferred to Immobilon-P membrane for immunoblotting procedures (Millipore Corp., Bedford, Mass.).
AtMIN7 is a low-abundance protein in Arabidopsis plants, however it is detected with a rabbit polyclonal antibody, described herein. […] AtMIN7 was absent on the immunoblots of leaves infiltrated with ΔCEL mutant bacteria (pORF43) but not the leaves infiltrated with water or ΔCEL mutant bacteria (FIG. 2C).

[1] = system: AtMIN2, AtMIN7, and AtMIN 10; assay: Immunoblot of AtMIN-HA proteins transiently co-expressed with HopM1 in N. benthamiana leaves; type: cell-based, Arabidopsis thaliana; details: DEX-induced expression in N. benthamiana leaves
Procedure: Oligonucleotide primers used for amplifying hopMl and AtMIN genes from Pst DC3000 genomic DNA or Arabidopsis total cDNA, as applicable, used for creating these expression vectors are shown in FIG. 14. Two days after leaf infiltration, 0.3 μM DEX was applied to induce the expression of HopM11-712, or HopM11-300 or HopM11-712. Three hours after DEX treatment, leaf discs were taken for subsequent analyses using immunoblotting or co-immunoprecipitation experiments (see, EXAMPLES herein for procedures).
Plant cells expressing 6×His-HopM1 and AtMIN-HA proteins in N. benthamiana leaves were engineered to co-express a second transiently expressed protein, either full-length 6×His-HopM1 or 6×His-HopM11-300. […] Specifically, AtMIN7-HA was pulled down with HopM11-300, but not with 6×His-HopM1301-712. Please note that membrane associated AtMIN 10-HA was preferably eliminated during bacterial infection. Arrows indicate lanes in which DEX-induced expression of full-length HopM1 destabilized AtMIN2, AtMIN7, and AtMIN 10 (FIG. 6B).
Expression Plasmids for Nicotiana cells: For transient expression studies in Nicotiana benthamiana; expression plasmids were engineered to express C-terminal HA epitope-tagged AtMIN proteins using a constitutive CaMV 35S promoter operably linked to AtMIN sequences. […]

Pst DC3000 ΔCEL mutant = assay: Bacterial multiplication and disease symptoms in HopM1 transgenic Arabidopsis plants; type: in vivo, Pseudomonas syringae; details: protein expressed in transgenic Arabidopsis (Col-0 gl1), DEX-induced
Procedure: Following inoculation, infected plants were monitored daily over a 3- to 4-day period for symptom development and bacterial multiplication. For experiments described in FIGS. 1 and 5, plants were sprayed with 30 μM dexamethasone (DEX) 24 h before bacterial inoculation (1×10^6 cfu/ml).
Leaves were harvested and surface sterilized as follows: 1) whole leaves were removed from a host plant and gently mixed in a 70% ethanol solution for 1 minute. Leaves were blotted briefly on paper towels then rinsed in sterile distilled water for 1 minute, then blotted dry on paper towels. Leaf disks were excised from leaves with a 0.5 cm^2 or smaller cork borer, depending on the size of the sample leaves; 2) leaf disks from the leaves of 2 or more independent replicate plants were pooled for a single tissue sample and placed in a 1.5-mL microfuge tube with 100 μL sterile distilled water, the amount of leaf tissue per tube was recorded as leaf surface area. Three or more samples were harvested for each time point. […] The number of serial dilutions necessary to get countable colonies were determined for each sample, however dilutions to 10^−7 were usually sufficient for any bacterial strain; 7) The samples were plated on the appropriate medium (e.g., Low salt Luria Bertani) supplemented with the necessary antibiotics to select for the specific inoculated bacterial strain. […]

AtMIN10-HA = assay: Immunoblot of AtMIN10-HA in transgenic plants infiltrated with ΔCEL mutant bacteria (pORF43); type: in vivo, Arabidopsis; details: HopM1 delivered by 1×10^8 CFU/ml ΔCEL mutant bacteria (pORF43)
Procedure: as §1
Furthermore AtMIN10-HA stably expressed in transgenic plants was also destabilized by HopM1. Leaves of AtMIN10-HA transgenic plants were infiltrated with water or 1×10^8 CFU/ml ΔCEL mutant bacteria or ΔCEL mutant bacteria (pORF43). AtMIN10-HA was detected using the HA epitope antibody.

B1: full-length HopM1: Pst DC3000 type III effector, 712-aa virulence protein (SEQ ID NO:34) (protein)
chain: MISSRIGGAGGVELSRVNQQHDTVPAQTAHPNAVTAGMNPPLTPDQSGSHATESSSAGAARLNVAARHTQLLQAFKAEHGTAPVSGAPMISSRAALLIGSLLQAEPLPFEVMAEKLSPERYQLKQFQGSDLQQRLEKFAQPGQIPDKAEVGQLIKGFAQSVADQLEHFQLMHDASPATVGQHAKADKATLAVSQTALGEYAGRASKAIGEGLSNSIASLDEHISALDLTLQDAEQGNKESLHADRQALVDAKTTLVGLHADFVKSPEAKRLASVAAHTQLDNVVSDLVTARNTVGGWKGAGPIVAAAVPQFLSSMTHLGYVRLSTSDKLRDTIPETSSDANMLKASIIGMVAGIAHETVNSVVKPMFQAALQKTGLNERLNMVPMKAVDTNTVIPDPFELKSEHGELVKKTPEEVAQDKAFVKSERALLNQKKVQGSSTHPVGELMAYSAFGGSQAVRQMLNDVHQINGQTLSARALASGFGGAVSASSQTLLQLKSNYVDPQGRKIPVFTPDRAESDLKKDLLKGMDLREPSVRTTFYSKALSGIQSSALTSALPPVTAQAEGASGTLSAGAILRNMALAATGSVSYLSTLYTNQSVTAEAKALKAAGMGGATPMLDRTETALNNIRHPNRESLPHTFQKSTLSGIPRVAENAYHMGRGALQLPTQMAVDTVRVVDEGVLNAVASAREALKQPTKDDDALRALEEGLLDPR
modifications: 6xHis tag; Pseudomonas syringae pv. tomato str. DC3000
Which results are given for B1?
endogenous AtMIN7 protein on immunoblot (AtMIN7): absent; destabilization of AtMIN2, AtMIN7 and AtMIN10 [1]: destabilized; complementation of the virulence defect (multiplication, disease symptoms) (Pst DC3000 ΔCEL mutant): almost fully complemented; stability of AtMIN10-HA (AtMIN10-HA): destabilized
